B1: C5a: Murine C5a complement anaphylatoxin from Cell Sciences (protein)
chain: NLHLLRQKIEEQAAKYKHSVPKKCCYDGARVNFYETCEERVARVTIGPLCIRAFNECCTIANKIRKESPHKPVQLGR

How the values were obtained:
[1] = tested on: phospho-Ser473 AKT; experiment: AKT phosphorylation in WT T cells stimulated with anti-CD3+anti-CD28 (immunoblot, Luminex); assay type: cell-based, mouse; settings: 0.1 μM PI-103, 20 min
Procedure: FIG. 5 illustrates immunoblots of A) anti-phospho-Ser473 AKT (rep of 5 exps) of WT T cells incubated with anti-CD3+anti-CD28±C5aR-A+C3aR-A (10 ng/ml each). B) anti-phospho-Ser473 AKT (rep of 5 exps) of WT or C5ar1−/−C3ar1−/− T cells incubated with anti-CD3+anti-CD28.
FIG. 6 illustrates C5aR and C3aR Ligation Activates PI3-Kγ, which in turn promotes AKT Phosphorylation. […] (p<0.05). […] (B) WT T cells were incubated at 37° C. with anti-CD3+anti-CD28 (1 μg/ml each) for 3 min after which the cells were incubated for 20 min with buffer or 0.1 μM PI-3Kγ-specific inhibitor PI-103. Extracts were immunoblotted with anti-phospho-Ser^473 AKT or total AKT mAb (representative of five experiments). (C) OT-II T cells were incubated with 0.1 μM OVA323-339, WT DCs, and 0.1 μM PI-103±10 ng/ml C5a. Complement, IL-2, and IFNγ mRNAs were quantitated by qPCR. All error bars are ±SD.
To test whether abrogated CD28 costimulation in the absence or blockade of C5aR+C3aR relates to a requirement for these GCPR signals for optimal AKT phosphorylation, we stimulated WT T cells with anti-CD3+anti-CD28±C5aR-A and C3aR-A and assessed AKT phosphorylation by immunoblotting (FIG. 5A) and Luminex assay (FIG. 6A).
Cells were stimulated for 1 hr with 1 μg/ml anti-CD3 and/or anti-CD28 (BD Biosciences) in serum-free RPMI 1640 for qPCR analyses and for 72 hr for IFNγ ELISPOT assays. […]

[2] = tested on: Complement, IL-2, and IFNγ mRNAs; experiment: qPCR of complement, IL-2 and IFNγ mRNAs in T cells with PI-103; assay type: cell-based, mouse
Procedure: To test whether this signaling pathway is operational in T cells, we incubated WT T cells with anti-CD3+anti-CD28 plus a specific inhibitor (PI-103) of PI-3Kγ.
We synthesized cDNAs by incubating 20 μl of mRNAs in Sprint PowerScript Single Shots (Clontech, Mountain View, Calif.). A total of 10 μl of diluted cDNA were mixed with 2 μl of primer and 10 μl SYBR green master mix (Applied Biosystems, Foster City, Calif.) and assayed in triplicate on an ABI prism 7000 cycler. In all assays, fold increases are relative to each basal level and standardized to Actin.

[3] = tested on: EGF receptor (EGFR); experiment: EGFR phosphorylation in the 3 tumor lines (immunoprecipitation, anti-phosphotyrosine immunoblot); assay type: cell-based, murine
Source text: (§1) Unregulated EGFR signaling has causally linked with certain cancers. Additionally, an earlier study in the literature reported that added C5a can induce EGFR phosphorylation in HeLa cells. Based on these two findings, we next asked whether EGFR phosphorylation in cancers cells is in fact dependent on C3aR/C5aR signal transduction. To do this, we cultured each of the 3 tumor lines in the presence of buffer alone, C5aR-A/C3aR-A and anti-C3a/anti-C5a mAb, or vehicle and nonrelevant mAb controls. After 2 hr, we added increasing amounts of EGF, 2 min after which we extracted the cells with NP-40 lysis buffer. We then immuoprecipitated EGFR from lysates with specific antibody and probed immunoblots of the precipitates with anti-phosphtyrosine mAb. […] To determine this C3aR/C5aR dependent step is an intermediary for EGFR phosphorylation, we repeated the above study this time using PI-103, a specific inhibitor of this enzyme. […] In a converse study, we incubated each of the 3 tumor lines without and with added C5a and measured cell growth.

[4] = tested on: T cells; experiment: In vitro T cell viability in serum-free HL-1 medium; assay type: cell-based, mouse; settings: 300 ng/ml C5a added at time 0 and 90 min, both knockouts
Procedure: FIG. 7 illustrates constitutive C5a and C3a Production and Signaling via the C5aR and C3aR GPCRs Influences Cell Viability In Vitro and In Vivo. […] (B) WT and C5ar1^−/−, C3ar1^−/−, and C5ar1^−/− C3ar1^−/− T cells were incubated for 6 hr in serum-free HL-1 medium and viability assayed. (C) WT T cells were incubated at 37° C. for 6 hr in HL-1 medium±anti-C3a, anti-C5a, or anti-C3a+anti-C5a and viability assessed. (D) C3^−/− and C5-deficient T cells were incubated for 6 hr in HL-1 medium±300 ng/ml C5a added at time 0 and 90 min (E) Spleens from naive WT, C3ar1^−/−, C5ar1^−/−, and C3ar1^−/− C5ar1^−/− mice were isolated (three to five animals per group), total cell numbers were counted, and the CD3^+ fraction was determined by flow cytometry (WT=10%, C5ar1^−/−=5.4%, C3ar1^−/−=6.3, and C5ar1^−/− C3ar1^−/−=4.1%). (F) Immediately after isolation and labeling, 10^6 CFSE-labeled WT T cells and CellTracker Red CMTPX-labeled C5ar1^−/− C3ar1^−/− T cells were adoptively cotransferred into the same SCID mice (n=4 mice per group for each time point). […]
To test this possibility, we compared the survival of WT and C5ar1^−/− C3ar1^−/− T cells in vitro […]. […] Fewer surviving C5ar1^−/− C3ar1^−/− T cells were detected at 6 hr, confirming that disrupted autocrine signaling through both the C5aR and C3aR contributed to the decline (FIG. 7B). […]

[5] = tested on: B16/F10 (melanoma cell); experiment: Cell growth after mouse C5a treatment in Opti-MEM; assay type: cell-based, murine; settings: 100 nM C5a, 72 hr culture
Procedure: (§2) FIG. 2 illustrates graphs showing cell growth in 3 cancer cell lines (a) MCA 205 (fibrosarcoma), (b) B16 (melanoma cell), and (c) E0771 (breast cancer) after mouse C5a treatment in Opti-MEM media (serum-reduced media).
(§3) (a) MCA 205, (b) B16/F10 and (c) E0771. Data are representative of two experiments with duplicates. MCA 205 and E0771 were treated with 500 nM C5a and B16/F10 was treated with 100 nM C5a respectively.
(§4) Three kinds of cancer cell lines (B 16/F10, MCA 205 and E0771) were used for this experiment. Each cell line was cultured in 12-well plates (3×10^4/well) in serum reduced Opti-MEM media (Invitrogen) containing L-glutamine and penicillin+streptomycin for the indicated times (24 hr, 48 hr and 72 hr). C5a (Cell Sciences) in PBS was added in each well at 0, 24 and 48 hr time point to a final concentration 100 nM for B16/F10 and 500 nM for MCA205 and E0771 based on the preliminary experiment. At each time point (24 hr, 48 hr and 72 hr), live cells were trypsinized and counted using trypan blue (Invitrogen, Carlsbad, Calif.). Experiment was repeated two times with duplicates.

[6] = tested on: E0771 (breast cancer); experiment: Cell growth after mouse C5a treatment in Opti-MEM; assay type: cell-based, murine; settings: 500 nM C5a, 72 hr culture
Procedure: as §2, §3, §4

[7] = tested on: MCA 205 (fibrosarcoma); experiment: Cell growth after mouse C5a treatment in Opti-MEM; assay type: cell-based, murine; settings: 500 nM C5a, 72 hr culture
Procedure: as §2, §3, §4

[8] = tested on: 3 tumor lines; experiment: Cell growth of the 3 tumor lines without and with added C5a; assay type: cell-based, murine; settings: all 3 tumor lines
Source text: as §1

[9] = tested on: PI-3Kγ; experiment: PI-3Kγ enzyme activity in immunoprecipitates of tumor lines with added C5a; assay type: cell-based, murine; settings: PI-3Kγ immunoprecipitates
Source text: as §1

| Molecule | anti-CD3+anti-CD28-induced phosphorylation of AKT [1] | upregulation of IL-2 and IFNγ mRNA expression ([2]; 0.1 μM PI-103) | upregulation of complement gene expression ([2]; 0.1 μM PI-103) | EGF induced EGFR phosphorylation ([3]; 3 tumor lines, 2 hr pre-treatment, increasing amounts of EGF for 2 min) | overcoming of the suppressive effects of PI-103 by added C5a ([2]; 0.1 μM PI-103 + 10 ng/ml C5a) | augmentation of 6 hr viability of C5-deficient or C3−/− T cells [4] [%] | cell survival in comparison with control [5] | cell survival in comparison with control [6] | cell survival in comparison with control [7] | EGFR phosphorylation ([3]; anti-EGFR immunoprecipitates, added C5a) | tumor cell numbers [8] | PI-3Kγ enzyme activity [9] |
| --- | --- | --- | --- | --- | --- | --- | --- | --- | --- | --- | --- | --- |
| Oc1cccc(-c2nc(N3CCOCC3)c3oc4ncccc4c3n2)c1 [PI-103] | abrogated | eliminated | prevented | inhibited EGFR phosphorylation in an identical fashion |  |  |  |  |  |  |  |  |
| B1 |  |  |  |  | could not be overcome | ~25 | enhances cell survival | enhances cell survival | enhances cell survival | augmented EGFR phosphorylation | increased tumor cell numbers | augmented PI-3Kγ enzyme activity |
